Assay results: the Human Domainome abundance scans (Beltran et al. 2025)
± gives the uncertainty stated by the source.

B1: Double-stranded RNA-specific adenosine deaminase, residues 296 to 358; numbered along this chain, P55265 (parent)
chain: MAEIKEKICDYLFNVSDSSALNLAKNIGLTKARDINAVLIDMERQGDVYRQGTTPPIWHLTDK

Variants of: B1
Experiment: abundance fitness (aPCA) (normalised: wild type 0, dead -1); higher = more abundant; growth selection in yeast, the domain comes from the species named
Conditions: Homo sapiens

Variant | abundance fitness
D17M | -0.499 ± 0.27
L29F | -0.107 ± 0.051
L29I | -0.025 ± 0.04
M42E | -0.22 ± 0.078
D47G | -0.881 ± 0.13
D47M | 0.182 ± 0.054
A32L | 0.25 ± 0.054
A24T | -0.276 ± 0.077
A24N | -0.722 ± 0.13
Y49S | 0.111 ± 0.046
Y49N | -0.34 ± 0.084
Y49Q | 0.051 ± 0.11
I40Y | 0.043 ± 0.033
L39A | -0.148 ± 0.059
L39R | -0.365 ± 0.055
L39Q | -0.244 ± 0.066
L39C | -0.528 ± 0.1
L60I | -0.628 ± 0.12
L60Y | -0.577 ± 0.072
L60C | -0.662 ± 0.1
L60Q | -0.764 ± 0.16

Variant | abundance fitness
C9I | 0.338 ± 0.085
C9N | 0.077 ± 0.12
K63D | -0.162 ± 0.23
K63Y | -0.634 ± 0.15
I27P | -0.452 ± 0.061
I27N | -0.538 ± 0.11
I27G | -0.611 ± 0.07
I27V | -0.162 ± 0.059
I35H | -0.556 ± 0.073
I35K | -0.323 ± 0.22
I35S | -0.343 ± 0.046
I35P | -0.257 ± 0.061
I35Y | -0.743 ± 0.091
G28K | -0.229 ± 0.081
G28E | -0.15 ± 0.065
R50M | -0.555 ± 0.1
R50L | -0.684 ± 0.065
R50F | -0.601 ± 0.12
D41S | -0.501 ± 0.093
D41H | -0.754 ± 0.15
D41M | -0.539 ± 0.15

Variant | abundance fitness
D41G | -0.348 ± 0.068
D41F | -1.34 ± 0.31
K25N | -0.234 ± 0.07
D34P | -0.541 ± 0.073
D34G | -0.592 ± 0.067
D34H | -0.578 ± 0.079
G46C | -0.998 ± 0.12
G46T | -0.856 ± 0.12
G46S | -0.618 ± 0.072
G46M | -0.498 ± 0.12
L23K | -0.531 ± 0.14
L23P | -0.299 ± 0.061
L23T | -0.421 ± 0.079
L23W | -0.682 ± 0.094
L23I | 0.372 ± 0.062
L23R | -0.592 ± 0.06
M1Y | -0.327 ± 0.26
M1W | 0.017 ± 0.06
L21N | 0.067 ± 0.079
L21Y | -0.111 ± 0.069
D62S | -0.083 ± 0.048

Variant | abundance fitness
K7G | -0.775 ± 0.086
K7C | -1.01 ± 0.12
K7A | -0.348 ± 0.066
K7P | -0.906 ± 0.27
A37D | -0.101 ± 0.079
A37R | -0.054 ± 0.04
A37T | -0.173 ± 0.068
A37N | -0.247 ± 0.097
T61R | -0.282 ± 0.052
T61E | -0.483 ± 0.1
T61D | -0.32 ± 0.12
E3W | -0.147 ± 0.054
E3Q | -0.368 ± 0.11
E3M | -0.621 ± 0.15
E3P | -0.383 ± 0.077
H59V | -0.282 ± 0.048
H59G | 0.215 ± 0.044
H59S | 0.263 ± 0.044
H59W | -0.972 ± 0.1
H59I | -0.525 ± 0.09
